The results in this text go back to PMC11441495 (Proceedings of the National Academy of Sciences of the …, 2024).

To fix the notation:
B2: human β-catenin (natural protein, UniProt P35222 1-781, looked up)
chain: MATQADLMELDMAMEPDRKAAVSHWQQQSYLDSGIHSGATTTAPSLSGKGNPEEEDVDTSQVLYEWEQGFSQSFTQEQVADIDGQYAMTRAQRVRAAMFPETLDEGMQIPSTQFDAAHPTNVQRLAEPSQMLKHAVVNLINYQDDAELATRAIPELTKLLNDEDQVVVNKAAVMVHQLSKKEASRHAIMRSPQMVSAIVRTMQNTNDVETARCTAGTLHNLSHHREGLLAIFKSGGIPALVKMLGSPVDSVLFYAITTLHNLLLHQEGAKMAVRLAGGLQKMVALLNKTNVKFLAITTDCLQILAYGNQESKLIILASGGPQALVNIMRTYTYEKLLWTTSRVLKVLSVCSSNKPAIVEAGGMQALGLHLTDPSQRLVQNCLWTLRNLSDAATKQEGMEGLLGTLVQLLGSDDINVVTCAAGILSNLTCNNYKNKMMVCQVGGIEALVRTVLRAGDREDITEPAICALRHLTSRHQEAEMAQNAVRLHYGLPVVVKLLHPPSHWPLIKATVGLIRNLALCPANHAPLREQGAIPRLVQLLVRAHQDTQRRTSMGGTQQQFVEGVRMEEIVEGCTGALHILARDVHNRIVIRGLNTIPLFVQLLYSPIENIQRVAAGVLCELAQDKEAAEAIEAEGATAPLTELLHSRNEGVATYAAAVLFRMSEDKPQDYKKRLSVELTSSLFRTEPMAWNETADLGLDIGAQGEPLGYRQDDPSYRSFHSGGYGQDALGMDPMMEHEMGGHHPGADYPVDGLPDLGHAQDLMDGLPPGDSNQLAWFDTDL
B3: full-length human vinculin autoinhibition-disruption mutant VK3E (natural protein, UniProt P18206-2 1-1066, looked up)
chain: MPVFHTRTIESILEPVAQQISHLVIMHEEGEVDGKAIPDLTAPVAAVQAAVSNLVRVGKETVQTTEDQILKRDMPPAFIKVENACTKLVQAAQMLQSDPYSVPARDYLIDGSRGILSGTSDLLLTFDEAEVRKIIRVCKGILEYLTVAEVVETMEDLVTYTKNLGPGMTKMAKMIDERQQELTHQEHRVMLVNSMNTVKELLPVLISAMKIFVTTKNSKNQGIEEALKNRNFTVEKMSAEINEIIRVLQLTSWDEDAWASKDTEAMKRALASIDSKLNQAKGWLRDPSASPGDAGEQAIRQILDEAGKVGELCAGKERREILGTCKMLGQMTDQVADLRARGQGSSPVAMQKAQQVSQGLDVLTAKVENAARKLEAMTNSKQSIAKKIDAAQNWLADPNGGPEGEEQIRGALAEARKIAELCDDPKERDDILRSLGEISALTSKLADLRRQGKGDSPEARALAKQVATALQNLQTKTNRAVANSRPAKAAVHLEGKIEQAQRWIDNPTVDDRGVGQAAIRGLVAEGHRLANVMMGPYRQDLLAKCDRVDQLTAQLADLAARGEGESPQARALASQLQDSLKDLKARMQEAMTQEVSDVFSDTTTPIKLLAVAATAPPDAPNREEVFDERAANFENHSGKLGATAEKAAAVGTANKSTVEGIQASVKTARELTPQVVSAARILLRNPGNQAAYEHFETMKNQWIDNVEKMTGLVDEAIDTKSLLDASEEAIKKDLDKCKVAMANIQPQMLVAGATSIARRANRILLVAKREVENSEDPKFREAVKAASDELSKTISPMVMDAKAVAGNISDPGLQKSFLDSGYRILGAVAKVREAFQPQEPDFPPPPPDLEQLRLTDELAPPKPPLPEGEVPPPRPPPPEEKDEEFPEQKAGEVINQPMMMAARQLHDEARKWSSKGNDIIAAAKRMALLMAEMSRLVRGGSGTEEALIQCAKDIAKASDEVTRLAKEVAKQCTDKRIRTNLLQVCERIPTISTQLEILSTVKATMLGRTNISDEESEQATEMLVHNAQNLMQSVKETVREAEAASIKIRTDAGFTLRWVRKTPWYQ
B4: full-length human αE-catenin (natural protein, UniProt P35221 1-906, looked up)
chain: MTAVHAGNINFKWDPKSLEIRTLAVERLLEPLVTQVTTLVNTNSKGPSNKKRGRSKKAHVLAASVEQATENFLEKGDKIAKESQFLKEELVAAVEDVRKQGDLMKAAAGEFADDPCSSVKRGNMVRAARALLSAVTRLLILADMADVYKLLVQLKVVEDGILKLRNAGNEQDLGIQYKALKPEVDKLNIMAAKRQQELKDVGHRDQMAAARGILQKNVPILYTASQACLQHPDVAAYKANRDLIYKQLQQAVTGISNAAQATASDDASQHQGGGGGELAYALNNFDKQIIVDPLSFSEERFRPSLEERLESIISGAALMADSSCTRDDRRERIVAECNAVRQALQDLLSEYMGNAGRKERSDALNSAIDKMTKKTRDLRRQLRKAVMDHVSDSFLETNVPLLVLIEAAKNGNEKEVKEYAQVFREHANKLIEVANLACSISNNEEGVKLVRMSASQLEALCPQVINAALALAAKPQSKLAQENMDLFKEQWEKQVRVLTDAVDDITSIDDFLAVSENHILEDVNKCVIALQEKDVDGLDRTAGAIRGRAARVIHVVTSEMDNYEPGVYTEKVLEATKLLSNTVMPRFTEQVEAAVEALSSDPAQPMDENEFIDASRLVYDGIRDIRKAVLMIRTPEELDDSDFETEDFDVRSRTSVQTEDDQLIAGQSARAIMAQLPQEQKAKIAEQVASFQEEKSKLDAEVSKWDDSGNDIIVLAKQMCMIMMEMTDFTRGKGPLKNTSDVISAAKKIAEAGSRMDKLGRTIADHCPDSACKQDLLAYLQRIALYCHQLNICSKVKAEVQNLGGELVVSGVDSAMSLIQAAKNLMNAVVQTVKASYVASTKYQKSQGMASLNLPAVSWKMKAPEKKPLVKREKQDETQTKIKRASQKKHVNPVQALSEFKAMDSI

Assay in all cases: reconstitution of the complex from purified proteins
The target in the test “human β-catenin” is B2.
In test [1] the target is B4.
The target in test [2] is α-catenin–β-catenin–E-cadherin cytoplasmic tail complex (ABE complex) (human, UniProt P35221 1-906; P35222 1-781; P12830 731-882).
Test [3] has as its target B3.

Chain of α-catenin–β-catenin–E-cadherin cytoplasmic tail complex (ABE complex) (P12830 731-882, one chain of several): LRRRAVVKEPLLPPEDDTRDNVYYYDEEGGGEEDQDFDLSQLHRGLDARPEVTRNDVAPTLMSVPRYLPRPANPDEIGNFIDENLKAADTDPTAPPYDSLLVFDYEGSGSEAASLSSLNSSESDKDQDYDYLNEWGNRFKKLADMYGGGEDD

B1: cytoplasmic domain of human E-cadherin (EcadCT, residues 731 to 882) (domain or fragment)
chain: not shown
Regarding B1, the binding result in the test with human β-catenin is reported as “binds”.

On to B2, for which, in test [1], the binding result is given as “binds”.

Regarding B3, the binding result in test [2] is “binds”.

For B4, the binding result in test [3] is given as “binds”.
